Tests used:
[1] = target: FlhF-His6 (Vibrio alginolyticus FlhF with a C-terminal His6 tag) (V. alginolyticus); assay: SEC; purified FlhF kept on ice 10 min with 1 mM GTP; SuperDex 75 Increase in 20 mM Tris-HCl pH 8.0, 300 mM NaCl, 10 mM MgCl2, 1 mM GTP; fractions blotted with anti-FlhF antibody
[2] = target: FlhF-His6 (Vibrio alginolyticus FlhF with a C-terminal His6 tag) (V. alginolyticus)

stoichiometry N [1] | GTPase activity of FlhF: inorganic phosphate released in 30 min by 1 μM FlhF mixed with 1 μM FlhG (FlhF alone 5.3 μM; background sample 4.3 μM) [2] | Substance
2 | – | FlhF-His6 (Vibrio alginolyticus FlhF with a C-terminal His6 tag) (enzyme)
– | 8.5 µM | His-tagged FlhG (his6-tev-flhG in pTrcHisB) (enzyme)

Source: paper PMC6092412
